This assay addresses T1, Fms-related tyrosine kinase 3 (FLT3) on FLT3-expressing target cells (human, UniProt P36888 27-993).
T1 sequence (looked up): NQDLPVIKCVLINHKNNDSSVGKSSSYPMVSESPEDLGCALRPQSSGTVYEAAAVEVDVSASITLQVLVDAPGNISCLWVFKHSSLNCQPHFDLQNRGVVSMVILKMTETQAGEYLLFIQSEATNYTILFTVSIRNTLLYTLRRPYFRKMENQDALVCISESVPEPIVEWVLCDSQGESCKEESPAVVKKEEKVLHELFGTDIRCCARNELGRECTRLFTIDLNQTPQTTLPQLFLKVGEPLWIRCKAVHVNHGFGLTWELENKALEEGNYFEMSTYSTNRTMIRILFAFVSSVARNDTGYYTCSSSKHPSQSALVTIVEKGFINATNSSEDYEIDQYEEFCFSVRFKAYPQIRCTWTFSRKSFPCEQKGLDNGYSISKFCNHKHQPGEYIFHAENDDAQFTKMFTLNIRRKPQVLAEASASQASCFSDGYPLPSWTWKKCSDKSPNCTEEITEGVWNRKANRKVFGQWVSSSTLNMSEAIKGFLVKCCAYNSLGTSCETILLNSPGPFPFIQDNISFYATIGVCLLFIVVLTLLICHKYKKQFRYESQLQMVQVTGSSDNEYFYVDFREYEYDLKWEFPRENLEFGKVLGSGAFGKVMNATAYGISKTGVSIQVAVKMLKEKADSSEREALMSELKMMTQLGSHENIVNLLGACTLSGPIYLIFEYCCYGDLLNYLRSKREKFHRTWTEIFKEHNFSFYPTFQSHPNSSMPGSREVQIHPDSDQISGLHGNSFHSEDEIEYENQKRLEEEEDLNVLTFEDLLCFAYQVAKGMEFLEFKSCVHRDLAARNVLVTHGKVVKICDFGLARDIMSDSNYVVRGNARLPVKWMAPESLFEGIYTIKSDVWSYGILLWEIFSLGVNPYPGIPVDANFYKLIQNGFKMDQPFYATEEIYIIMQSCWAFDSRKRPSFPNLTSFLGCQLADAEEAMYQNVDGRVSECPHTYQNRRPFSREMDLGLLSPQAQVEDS
Nature of the assay: cell-based or functional assay.

B1: FLCAR (chimeric antigen receptor with an FLT3-binding extracellular portion of human FLT3 ligand, CD28 transmembrane and costimulatory regions and a CD3-zeta … (other)
chain: TQDCSFQHSPISSDFAVKIRELSDYLLQDYPVTVASNLQDEELCGGLWRLVLAQRWMERLKTVAGSKMQGLLERVNTEIHFVTKCAFQPPPSCLRFVQTNISRLLQETSEQLVALKPWITRQNFSRCLELQCQGKHLCPSPLFPGPSKPFWVLVVVGGVLACYSLLVTVAFIIFWVRSKRSRLLHSDYMNMTPRRPGPTRKHYQPYAPPRDFAAYRSGSRSADAPAYQQGQNQLYNELNLGRREEYDVLDKRRGRDPEMGGKPRRKNPQEGLYNELQKDKMAEAYSEIGMKGERRRGKGHDGLYQGLSTATKDTYDALHMQALPPR
modifications: partially phosphorylated on tyrosine
Turning to B1, the “IL-2 expression (quantitative RT-PCR)” value was more than 5 fold.

These data come from patent publication US20240317894A1 (BOARD OF REGENTS OF THE UNIVERSITY OF OKLAHOMA, published 2024).
